Our source for the fold increase in affinity (IC50) against APCbc, Kd and kon values is article PMC9214244, “Multivalent Interaction of Beta-Catenin With its Intrinsically Disordered Binding Partner Adenomatous Polyposis Coli” (Frontiers in Molecular Biosciences, 2022).

As a reminder, the Kd is the equilibrium constant for the complex coming apart. A high value points to a looser complex. The term kon denotes the second-order rate constant of association. Read a low kon as slower complex formation.

Where no end group is shown, it is not given here.

The target in assay [1] is armadillo (ARM) repeat domain of human β-catenin (residues 134–671) (human) (UniProt P35222). Put plainly: other fluorescence titration; competition: 20 nM Alexa-488-APCbc and 200 nM β-catenin incubated 30 min, then unlabelled APCbc variants titrated; PBS, 1 mM DTT; 25°C.
Assay [2] deals with T1, armadillo (ARM) repeat domain of human β-catenin (residues 134–671) (human, UniProt P35222 134-671).
T1 construct: two residues left at the N-terminus after thrombin cleavage of GST; β-catenin, human, armadillo repeat domain, residues 134-671; plasmid a gift from W. I. Weis; source: E. coli C41, purified (glutathione-Sepharose, thrombin cleavage on the resin, Mono-Q); not shown: GST, N-terminal, cleaved
T1 sequence: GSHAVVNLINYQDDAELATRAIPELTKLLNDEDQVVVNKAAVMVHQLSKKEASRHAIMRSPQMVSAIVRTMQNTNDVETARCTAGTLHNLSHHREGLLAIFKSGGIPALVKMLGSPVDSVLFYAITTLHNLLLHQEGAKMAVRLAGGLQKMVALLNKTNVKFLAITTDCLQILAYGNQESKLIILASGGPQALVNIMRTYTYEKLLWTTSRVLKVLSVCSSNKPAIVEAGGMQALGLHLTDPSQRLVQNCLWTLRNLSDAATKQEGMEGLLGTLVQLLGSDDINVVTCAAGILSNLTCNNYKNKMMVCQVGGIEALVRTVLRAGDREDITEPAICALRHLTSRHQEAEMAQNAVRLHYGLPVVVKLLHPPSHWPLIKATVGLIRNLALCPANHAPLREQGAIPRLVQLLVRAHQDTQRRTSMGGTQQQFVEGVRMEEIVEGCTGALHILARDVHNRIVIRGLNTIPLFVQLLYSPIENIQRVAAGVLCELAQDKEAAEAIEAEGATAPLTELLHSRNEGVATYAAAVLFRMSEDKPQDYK
Briefly: fluorescence polarisation; fluorescence anisotropy; β-catenin titrated into 10 nM fluorescein-labelled APC construct; PBS, 1 mM DTT; 15°C; adjusted anisotropy fitted to a Hill equation. Particulars: both partners purified. Background: Polarisation of emitted light reports the rotation of a fluorescent probe.

Assay [3] deals with T1, armadillo (ARM) repeat domain of human …. The description is as above. Conditions: both partners purified. The source holds these as a separate data set.
Assay [4] shares this target. Briefly: stopped-flow fluorescence; association: 25 nM fluorescein-labelled APC mixed 1:1 by volume with 250-2,000 nM β-catenin (pseudo first-order); dissociation: pre-formed 1:1 complex (200 nM) mixed with 10 times molar excess of the same APC construct; PBS, 1 mM DTT; 15°C. Particulars: both partners purified.

Take “APCbc S1505E (S2), unlabelled (from UniProt P25054 1483-1533) (domain or fragment)”: in assay [1], the fold increase in affinity (IC50) against APCbc amounted to 5 fold.

In assay [1], “APCbc S1507E (S3), unlabelled (from UniProt P25054 1483-1533) (domain or fragment)” had a fold increase in affinity (IC50) against APCbc of 30 fold.

B1: APCabc D1486S, fluorescein-labelled at Cys 1501 (domain or fragment)
chain: SGPKQAAVNAAVQRVQVLPDASTLLHFATESTPDGFSC(fluorescein‑maleimide)SSSLSALSLDEPFIQKDVELRIMPPVQEND
B1: in assay [2], the affinity, expressed as Kd, was 2050 nM.

B2: APC R3 construct with E1494T (domain or fragment)
chain: SGPKQAAVNAAVQRVQVLPDADTLLHFATTSTPDGFSC(fluorescein‑maleimide)SSSLSALSLDEPFIQKDVELRIMPPVQEND
modifications: not fully specified
In turn, B2 returned a Kd in assay [3] above 5000 nM.

B3: APCb, lysine-binding domain b of APC R3, fluorescein-labelled at Cys 1501 (domain or fragment)
chain: GSPDADTLLHFATESTPDGFSC(fluorescein‑maleimide)
notes: two residues left at the N-terminus after thrombin cleavage of GST; adenomatous polyposis coli (APC), R3 region, subdomain b, residues 1483-1502; source: E. coli C41, purified (glutathione-Sepharose, thrombin cleavage on the resin, differential filtration); not shown: GST, N-terminal, cleaved
For B3, the Kd in assay [2] turned out to be 246 nM.

B4: APCab, APC R3 subdomains a and b, fluorescein-labelled at Cys 1501 (domain or fragment)
chain: GSSGPKQAAVNAAVQRVQVLPDADTLLHFATESTPDGFSC(fluorescein‑maleimide)
notes: two residues left at the N-terminus after thrombin cleavage of GST; adenomatous polyposis coli (APC), R3 region, subdomains a (1465-1483) and b (1483-1502); source: E. coli C41, purified (glutathione-Sepharose, thrombin cleavage on the resin, differential filtration); not shown: GST, N-terminal, cleaved
Take B4: the kon in assay [4] came to 1.33e+07 M⁻¹ s⁻¹. Moreover, in assay [2], the affinity, expressed as Kd, was 89.9 nM.
